We go through three molecules from PMC4269414, “Stubborn Contaminants: Influence of Detergents on the Purity of the Multidrug ABC Transporter BmrA” (PLoS ONE, 2014).

Data set [1] deals with the molecule itself. The data set is described as follows: SEC; HiLoad 16/60 Superdex 200 PG, 25 mM Tris-HCl pH 8.0, 150 mM NaCl with detergent (DDM, UDM, UTM, LMNG, LDAO or FC12), 4°C; elution volume compared with that expected for dimers in detergent micelles.
Data set [2] deals with the molecule itself. The data set can be described thus: crystal structure; OmpF crystallised from the FC12-purified BmrA sample with 5 mM ADP; PEG 1500, 2-methyl-2,4-pentanediol, 0.1 M Tris-HCl pH 8.0, 19°C; space group C2; molecular replacement with an OmpF trimer.
Data set [3] concerns the target T1, E504Q BmrA mutant, full-length, His6-tagged (uncleaved) (Bacillus subtilis, UniProt O06967 1-589, E504Q).
T1 construct: BmrA, Bacillus subtilis, E504Q mutant; the part of the sample left uncut after a short trypsin digestion with 2 mM ATP and MgCl2; also called tagged, uncleaved monomer; source: E. coli membranes, solubilised with DDM, purified (Ni2+ high trap chelating column, PD-10 desalting); not shown: His6, N-terminal, kept
T1 sequence (looked up): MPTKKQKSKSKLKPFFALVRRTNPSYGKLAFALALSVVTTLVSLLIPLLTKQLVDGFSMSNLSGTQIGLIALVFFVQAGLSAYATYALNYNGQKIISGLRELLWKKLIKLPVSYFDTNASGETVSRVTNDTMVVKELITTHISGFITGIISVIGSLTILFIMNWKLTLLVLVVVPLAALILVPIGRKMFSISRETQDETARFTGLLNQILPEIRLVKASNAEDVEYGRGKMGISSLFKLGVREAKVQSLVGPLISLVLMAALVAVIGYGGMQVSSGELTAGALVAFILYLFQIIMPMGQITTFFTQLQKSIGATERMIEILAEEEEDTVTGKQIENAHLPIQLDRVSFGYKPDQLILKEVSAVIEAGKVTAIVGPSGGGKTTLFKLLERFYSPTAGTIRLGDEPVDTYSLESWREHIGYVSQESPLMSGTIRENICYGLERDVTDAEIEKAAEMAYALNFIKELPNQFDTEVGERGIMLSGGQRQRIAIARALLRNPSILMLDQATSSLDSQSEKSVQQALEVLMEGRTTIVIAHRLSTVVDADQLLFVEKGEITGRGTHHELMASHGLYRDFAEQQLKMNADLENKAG
The data set can be described thus: pull-down; second Ni2+ High Trap chelating column in DDM after partial trypsin cleavage of the N-terminal His6 tag; flow-through against the peak eluted with 250 mM imidazole, fractions on SDS-PAGE. Particulars: both partners purified.

Where a chain is given by its changes, count along the chain named. Numbers in names are those of the source.

B1: BmrA (Bacillus multidrug resistance ATP), 6-histidine N-terminal tag (natural protein, Bacillus subtilis, UniProt O06967 1-589, looked up)
chain: T1 sequence (looked up) with Q504E
notes: also called multidrug ABC transporter BmrA; source: E. coli C41(DE3) membranes, solubilised and purified in detergent (Q-Sepharose and Ni column in FC12; or Ni-NTA and SEC in DDM, UDM, UTM, LMNG, LDAO or FC12); not shown: His6, N-terminal, kept
The term stoichiometry N denotes the number of molecules, sites or subunits per partner or assembly. Take B1: the “stoichiometry N” value in data set [1] turned out to be 2.

B2: Outer membrane protein F (OmpF) (natural protein, E. coli (endogenous in C41(DE3)), UniProt P02931 23-362, looked up)
chain: AEIYNKDGNKVDLYGKAVGLHYFSKGNGENSYGGNGDMTYARLGFKGETQINSDLTGYGQWEYNFQGNNSEGADAQTGNKTRLAFAGLKYADVGSFDYGRNYGVVYDALGYTDMLPEFGGDTAYSDDFFVGRVGGVATYRNSNFFGLVDGLNFAVQYLGKNERDTARRSNGDGVGGSISYEYEGFGIVGAYGAADRTNLQEAQPLGNGKKAEQWATGLKYDANNIYLAANYGETRNATPITNKFTNTSGFANKTQDVLLVAQYQFDFGLRPSIAYTKSKAKDVEGIGDVDLVNYFEVGATYYFNKNMSTYVDYIINQIDSDNKLGVGSDDTVAVGIVYQF
notes: Outer membrane protein F of E. coli, identified by mass spectrometry as P02931; structure deposited as PDB 4JFB, solved with a trimer of PDB 2ZFG as search model; The expression strain is C41(DE3), whose OmpF may differ from that entry; also called outer membrane porin OmpF; source: endogenous, E. coli C41(DE3); co-extracted and co-purified with BmrA in FC12, crystallised from that sample
In the case of B2, in data set [2], the “stoichiometry N” value was 3.

B3: E504Q BmrA mutant, untagged, cleaved by trypsin (starts at Leu12) (domain or fragment, Bacillus subtilis, UniProt O06967 12-589, looked up)
chain: LKPFFALVRRTNPSYGKLAFALALSVVTTLVSLLIPLLTKQLVDGFSMSNLSGTQIGLIALVFFVQAGLSAYATYALNYNGQKIISGLRELLWKKLIKLPVSYFDTNASGETVSRVTNDTMVVKELITTHISGFITGIISVIGSLTILFIMNWKLTLLVLVVVPLAALILVPIGRKMFSISRETQDETARFTGLLNQILPEIRLVKASNAEDVEYGRGKMGISSLFKLGVREAKVQSLVGPLISLVLMAALVAVIGYGGMQVSSGELTAGALVAFILYLFQIIMPMGQITTFFTQLQKSIGATERMIEILAEEEEDTVTGKQIENAHLPIQLDRVSFGYKPDQLILKEVSAVIEAGKVTAIVGPSGGGKTTLFKLLERFYSPTAGTIRLGDEPVDTYSLESWREHIGYVSQESPLMSGTIRENICYGLERDVTDAEIEKAAEMAYALNFIKELPNQFDTEVGERGIMLSGGQRQRIAIARALLRNPSILMLDQATSSLDSQSEKSVQQALEVLMEGRTTIVIAHRLSTVVDADQLLFVEKGEITGRGTHHELMASHGLYRDFAEQQLKMNADLENKAG
notes: BmrA, Bacillus subtilis, E504Q mutant, cut by trypsin between Lys11 and Leu12; The His6 tag is lost together with residues 1-11; also called untagged BmrA; untagged, cleaved, monomer
Regarding B3, the binding result in data set [3] is “binds”.
